What was measured:
[1] = target: MPV fusion glycoprotein with the D280N mutation (MPV-F N280) (metapneumovirus); assay: SPR; F protein loaded on streptavidin sensors, mAb in solution
[2] = target: MPV fusion glycoprotein without the D280N mutation (MPV-F D280) (metapneumovirus); assay: as above
[3] = target: fusion glycoprotein of the RSV used in the neutralization assay of Example 1 (respiratory syncytial virus (strain not stated)); assay: cell-based or functional assay

Binder	Kd [1] [pM]	Kd [2] [pM]	RSV Neutralization - IC50 [3] [ng/mL]
MPK158 (antibody, V domains shown) VH: EVQLVESGGGLVKPGGSLRLSCAASGFSISGFYMIWIRQAPGKGLEWISDISASSSYIDYADSVKGRFTISRDNGQNTVHLLMNNLRADDTGVYYCAREQTPSPGPFDLWGQGTLVTVST VL: QPVLTQPPSVSGAPGQRVTISCTGRSSNIGAGYDVHWYQHLPGTSPKLLIYRNSNRPSGVPDRFSGSTSGTSASLAITGLQADDEADYYCQAYDRILGGWAFGGGTKLTVL	290	1	
MPK180 (antibody, V domains shown) VH: QVQLVQSGAEVKKPGESLRISCKASGYSFASYWIGWVRQKPGKGPEWMGIIFPNDSDTEYSPSFEGQVSISADKSTSTVHLQWGSLKASDTAVYYCGRMYYLGALETWGQGTMVTVSS VL: AIRMTQSPSSLSASVGDRVTIVCQASHDISNFLNWYQQRPGQAPKLLIYDASFLETGVPSRFSGSGSGTYFTLTISSLQPEDFATYYCQRYDNRFFTFGPGTKVDIK			1.5
MPK133 (antibody, V domains shown) VH: QVQLVQSGGGLVKPGGSLRLSCAASEFSFSGYFMIWIRQAPGKGLEWISYISGSSTYTNYADSVKGRFTISRDNAQNTLYLEMNSLRAEDTGVYYCATEQVPSPGPFDLWGQGTLVTVSS VL: QSVLTQPPSVSGAPGQRVTISCTGSSSNIGAGYDVHWYQQFPGRSPTLLIYRNTNRPSGVPDRFSGSQSGSSASLAITGLQAEDEADYYCQSYDRTLSGWAFGGGTKVTVL	3700	82	
MPK204 (antibody, V domains shown) VH: QVQLVESGGGLVKPGGSLRLSCEASGLSLSGYYMIWIRQAPGKGLEWISSISSSSNYIDYADSVKGRFTISRHNGQNTLYLQMNSLRVEDTAVYYCATEQTPSPGPFDLWGQGTLVTVSS VL: QSVLTQPPSVSGAPGQRVTISCTGTSSNIGTGYDVHWYQQFPGTSPKLLIYRNTNRPSGVPDRFSGSKSGSSASLAIAGLQAEDEADYYCQSYDRSVSGWVFGGGTKLTVL	2600	1	
MPK146 (antibody, V domains shown) VH: QVQLVESGGGLVKPGGSLRLSCAASGFTFSGYYMIWIRQAPGKGLEWIASISGSSNYIDYADSVRGRFTISRDNARNILDLQMNSLRAGDTALYYCATEQVPSPGPFDLWGQGTLVTVSS VL: QSVLTQPPSVSGAPGQRVTISCTGSNSNLGAGYDVHWYQQFPGTSPKLLIYRNTNRPSGVPDRFAGSKSGTSASLAITGLQAEDEADYYCQSYDRSLSGWVFGGGTKLTVL	7200	1	
MPK179-v4 (antibody, V domains shown) VH: QVQLVQSRAEVKKPGESLKISCRASGYSFINYWIGWVRQMPGKGLEWMGIIYPFDSDTKYSPSFEGHVTISADKSINTAYVQWSSLKASDTAIYYCARFTFGIALVAGDVGGEGHAFDIWGQGTLVTVSS VL: DIVMTQSPSSLSASVGDRVTITCRASQTISTYLNWYQQKPGKAPKLLIYAASRLQSGVPSRFSGSGSGTDFTLTISSLQPEDFATYFCQQSYNAPPFTFGPGTKVDIR			6.6
MPK168 (antibody, V domains shown) VH: EVQLVQSGAEVKKPGESLKISCQVSGYSFVNYWIGWVRQVPGKGLEWMGLIYPFDSDTQYSPSFQGHVTISADTSITTAYLQWSSLQASDTATYYCARFTFGLALVTAGLTDDGQAFDFWGQGTVVTVSS VL: EIVMMQSPATLSVSPGERATLSCRATESVAGKLAWYQQRPGQTPRLLIYGASARATGVPARFSGSGSETEFTLTISSLQSEDFAVYYCQQYSTWPHAFGQGTRLDIK			1.3
MPK198 (antibody, V domains shown) VH: EVQLVQSGAEVKKPGESLKISCKGSGYSFINYWIGWVRQMPGKGLEWMGIIYPFDSDTKYSPSFQGHVTISADKSINTAYVQWSSLKASDTAMYYCARFTFGIAVVTDDVSGEGQAFDIWGQGTMVTVSS VL: EIVMMQSPATLSVSPGERATLSCRASQSVAGNLAWYQQRPGQAPRLLIYGASTRATGVPARFSGSGSETEFTLTISSLQSEDFAVYYCQQYSNWPQAFGQGTRLDIK			1.2
MPK189 (antibody, V domains shown) VH: QVQLVQSGAEVKKPGESLKISCKGSGYSFINYWIGWVRQMPGKGLEWMGIIYPFDSDTKYSPSFQGHVTISADKSINTAYVQWSSLKASDTAMYYCARFTFGIAVVTDDVSDEGHAFDIWGQGTMVTVSS VL: EIVMMQSPATLSVSPGERATLSCRASQSVAGNLAWYQQRPGQAPRLLIYGASTRATGVPARFSGSGSETEFTLTISSLQSEDFAVYYCQQYSNWPQAFGQGTRLDIK			1.2
MPK203 (antibody, V domains shown) VH: EVQLVQSGPQVKKPGAAVKVSCKASGFTFTDTTVNWVRQTRGQRLEWMGWIAVGSGTTNYAQKFRDRVTISRDTSTDTAYMELGGLTHDDTAVYYCTTEASRTWFVQTSPFVGFDPWGQGTLVTVSS VL: EIVLTQSPGTLSLSPGERATLSCRASQSVSSSYFAWYQQKPGQTPRVLIYGASNRAPDIPDRFSGSGSGTDFILTISRLEPEDFAIYYCQHYGSSPTFGQGTKVEIK			2
MPK194-v2 (antibody, V domains shown) VH: QVQLVESGGGVVQPGRSLRLSCVASGFTFSNYPLHWVRQAPGKGLQWVAVISYDGSENYYADSVKGRFTISRDNSKSTLYLQMNSLRPEDTAIYYCARSKVAGGSYYFDYWGQGTLVPVSS VL: SYELTQPPSVSVAPGQAARVSCGGNNIGSQYVQWYQQKPGQAPVLVIYDDDDRPSGIPERFSGSNSGSTATLTISRVEAGDEADYYCQVWDKSNHVVVFGGGTKLTVL			2.6
MPK130 (antibody, V domains shown) VH: EVQLVESGGGLVKPGGSLTLSCEASGFSISGYYMIWVRQAPGKGLEWVSSISASDTYIDYAVSVQGRFTISRHNTKNSLYLQMSSLRVEDTGVYYCTREKVPSPGPFDCWGQGTLVTVSS VL: QSVLTQPPSVSGAPGQRITISCTGTSSNIGAGYDVHWYQHLPGAAPRLLIYVNTNRPSGVPDRFSGARSGTSASLAITGLQAEDEADYYCQSYDRSLGGWAFGEGTKVTVL	1900	18	
MPK187 (antibody, V domains shown) VH: QVQLVQSGAEVKKPGASVKVSCKTSGYYFNDYFIHWVRHAPGQGLEWMGWVNPLSGATVYAQKFQGWVTLTRDTSINTAYMELTRLTSNDTAMYYCATGALFWTGPTYWGQGTPVTVSA VL: EIVLTQSPATLSLFPGERATLSCRTSQFVSNNLAWYQQRPGQAPRLLIYDASSRASGTPGRFSASGSGTDFTLTVSSLETEDFAIYYCQHRSNWPPGITFGPGTRVDIR			9.1
MPK197 (antibody, V domains shown) VH: QVQLVQSGAEVKKPGASVKVSCKTSGYYFNDYFIHWVRHAPGQGLEWMGWVNPLSGATVYAQKFQGWVTLTRDTSINTAYMELTRLTSNDTALYYCATGALFWTGPTYWGQGTPVTVSA VL: EIVMMQSPATLSLSPGERATLSCRASQSISNNLAWYQQKTGQAPRLLIYDASSRASGTPGRFSASGSGTDFTLTVSSLETEDFAIYYCQHRSNWPPGITFGPGTRVDVR			14.7
MPK175 (antibody, V domains shown) VH: QVQLVQSGAEVKKPGESLKISCQASGYSFINYWIGWVRQKPGKGLEWMGIIYPFDSETKYSPSFQGHVTISADRFTNTAYVQWTSLKASDTAIYYCARFTFGLAVVAGGLSDDGQAFDIWGQGTRVTVSS VL: EIVLTQSPATLSVSPGERATLSCRASQSVAANLAWYQQRPGQTPRLLIYGASTRATGVPARFSGSGSETEFTLTISSLQPEDFAVYYCHHYSDWPQAFGQGTRLDIK			1.6
MPK201 (antibody, V domains shown) VH: EVQLVQSGAEVKKPGESLKISCQGSGYSFINYWIGWVRQKPGKGLEWMGIIYPFDSETKYSPSFQGHVTFSADKSINTAYVQWSSLRASDTAMYYCARFTFGLAVTTADVSGEGQAFEIWGQGTMVTVSS VL: EIVMMQSPATLSVSPGERATLSCRASQSVAGNLAWYQQRPGQAPRLLVYGASTRASGVPARFSGSGSETEFTLTISSLQSEDFAVYYCHHYSDWPQAFGQGTRLDIK			2.4
MPK193 (antibody, V domains shown) VH: EVQLVQSGAEVKKPGESLKISCEASGYSFNNYWIGWVRQMPGKGLEWMGIIYPFDSDTKYSPSFQGHVTISADKSINTAYLQWSSLKASDTAMYFCARFTFGIVLVAGDVTGEGHAFDVWGRGTMVTVTS VL: EIVMMQSPVTLSVSPGGRATLSCRASQSVAGNLAWYQQRPGQAPRLLIYGASTRATGVPARFSGSGSETEFTLTISSLQSEDFAVYYCHHYSNWPQAFGQGTRLDIK			1
MPK186 (antibody, V domains shown) VH: QVQLVQSGAEVKKPGESLKISCQGSGYSFINYWIGWVRQMPGKGLEWMGIIYPFDSETKYSPSFQGHVTISADKSINTAYVQWSSLKASDTAMYYCARFTFGIAVVTDDVYGEAQGFDIWGQGTMVTVSS VL: DIVMTQTPATLSVSPGERATLSCRASQSVDGNLAWYQQRPGQAPRLLIYGASTRATGVPARFSGSGSETEFTLTISSLQSEDFAVYYCQHYSNWPQAFGQGTRLDIK			1.2
MPK188 (antibody, V domains shown) VH: EVQLVQSGAEVKKPGESLKISCQASGYSFINYWIGWVRQMPGKGLEWMGIIYPFDSDTNYSPSFQGLVTISADKSINTAYLQWRSLKASDTAMYYCARFTFGIALVAGDVNGEGHAFDIWGQGTVVTVSS VL: EIVMTQSPATLSVSPGESATLSCRASQGVAGNLAWYQQRPGQAPRLLIYGTSTRATGVPARFSGSGSETEFTLTISSLQSEDFAVYYCHHYSNWPQAFGQGTRLDIK			1
MPK176 (antibody, V domains shown) VH: QVQLVQSGAEVKKPGASVRVSCKASGYTLTAYGISWVRQAPGQGLEWMGWISPKHGNTHYAQRFQGRVTMTTDTSTSTAYMELRSLRPDDTAVYFCAREGVDIMAVPWYFDYWGQGTLVAVSS VL: SYELTQPPSVSVAPGQTARISCGGNNIGSKSVHWYQQKPGQAPVVVVYDDSDRPSGIPERFSGSNSGNTATLTISGVEAGDEADYFCQVWDSATDHWVFGGGTKLTVL			4.2

Source: patent US20260028391A1
